From patent publication US9750823B2, “Use of a truncated CCN1 promoter for cancer diagnostics, therapeutics and theranostics” (priority 2013, dated 2017)

What was measured:
[1] = system: src-, raf-, ras- and HPV-transformed CREF cells; assay: Luciferase reporter assay of p-CCN1-luc and/or TPA in transformed CREF cells; assay type: cell-based, rat; details: for effect on expression of the tCCN1-Prom: TPA 200 ng/ml
Protocol: FIGS. 1A and B. tCCN1 promoter activity in Prostate cancer (PC) and cloned rat embryo fibroblast (CREF) series of cell lines. […] B. src-, raf-, ras- and HPV-transformed CREF cells were treated with p-CCN1-luc and/or TPA (200 ng/ml).

[2] = system: prostate cancer cells lines DU-145, PC-3, ARCaP, ARCaP-E, ARCaP-M and normal human prostate epithelial cell lines RWPE-1 and P69; assay: Dual-luciferase reporter assay of promoter activity (pCCN1-luc vs pPEG-luc); assay type: cell-based; details: pGL3-luc reporter, normalized with pRL-TK
Source text: FIGS. 1A and B. tCCN1 promoter activity in Prostate cancer (PC) and cloned rat embryo fibroblast (CREF) series of cell lines. A. Prostate cancer DU-145, PC-3, ARCaP, ARCaP-E, and ARCaP-M cells and normal RWPE-1 and P69 cells were transfected with pGL3-luc reporter vector driven by PEG-Prom (pPEG-luc) or tCCN1-Prom (pCCN1-luc). pRL-TK (Renilla luciferase) was co-transfected for the normalization of luciferase activity, and the luminescence readings were plotted as relative luminescence units (RLU). *(p<0.05), **(p<0.01) and ***(p<0.001) indicates the statistical significance by using t-test between pPEG-luc and pCCN1-luc transfected cells. B. src-, raf-, ras- and HPV-transformed CREF cells were treated with p-CCN1-luc and/or TPA (200 ng/ml). The results were recorded as RLU. *(p<0.05) and **(p<0.01) indicates the statistical significance between pCCN1-luc and pCCN1-luc plus TPA treated cells.
Prostate cancer cells were plated at seeding density of 30,000 cells/well in quadruplicate in 24-well cell culture plate. After 24 h, cells were transfected with either pGL3.PEG-luc or pGL3.CCN1-hie using Fugene® HD transfection reagent (Promega, Madison, Wis., USA). […] Cells were lysed after 48 h of post transfection and luminescence was studied using Dual-luciferase Reporter® Assay system (Promega) with luminometer. […]

[3] = system: breast, brain (including Glioblastoma multiforme, GBM) and melanoma; assay: tCCN1-Prom expression in additional human cancers vs normal counterparts (data not shown); assay type: cell-based

## CCCCCCCCCCCCCC(=O)O[C@@H]1[C@@H](C)[C@@]2(O)[C@@H](C=C(CO)C[C@]3(O)C(=O)C(C)=C[C@@H]23)[C@@H]2C(C)(C)[C@]12OC(C)=O [TPA]
[1]
  effect on expression of the tCCN1-Prom: increased the expression of the tCCN1-Prom

## Nc1ncnc2c1ncn2[C@@H]1O[C@@H]2COP(=O)(O)O[C@H]2[C@H]1O [cyclic adenosine mono-phosphate (AMP), cyclic adenosine mono-phosphate]
[1]
  effect on expression of the tCCN1-Prom: increased the expression of the tCCN1-Prom

B1: tCCN1-Prom: truncated CCN1 cancer selective promoter, SEQ ID NO: 1; tested in reporter plasmid pGL3.CCN1-luc (pCCN1-luc) (nucleic acid)
DNA: TCCAAAAACAAACAAGTACAACATACCCAAAAGAGGGAAGGGCTGGAGGAGTGGGGGAGACCTCTGCCTGGGAATTTGCCAGACGATGGGCAAGTTTCCCCCCGCCCCACCCCCCCCCCCGCCTTTTCATTCATAAATGCCACTGTGGGTATTAATTTGCAATTCACTGAACTTTGCTAATAAACATCATGCCAAAGCTTTGGGACTTGTTCCGAACACGCCTCTTTGAAGTCCACAAATATTCCTGACTCAGAGACACACTCCTCTTCCCCGTTCTACTCTTTCAACAGATAACTTGCCTCTCACCTTCGCTGTAAAAAAGCAAACAGCTCACTGCCTTCCCGGGTGAGGGCTTCAGTGGCTGCCCGGTCAACTCGCATCACCAAACAAAACGACTTTTGTTCCTCCCTCTCAGGTCCTCCCACCCACCCAGTCCAGGCAAAGTTCTGAACTGGCCCCCTCGCCCCTCACGACCCTCCAACTACCATCACCACCATCACGCCCCAAAGAACCCTTCCCAACATAAGTCGTAATTTAAGGTGGAAAAAACGAACTGTTTTCTTGACGGGTCTGGGACACACACACACACACACACACACACACACACCGAACTGTTTTCTTGACGGGTCTGGGAGACACACACACACACACACACACACACACACACACACACACACACACAAAGGTGCAATGGGGCCAGGGGAGGCGCTTGGCAGCAGCCCGCGCCAACCAGCATTCCTGAGATGTTTGAGAATTCTGGAACGCGCAGACAGAGCCGACGTCACTGCAACACGCGGCGCCTCCGCCGGCCCGTATAAAAGGCGGGCTCCGGGGCGCC
modifications: Synthetic promoter
[2]
  tCCN1-Prom activity compared with PEG-Prom (relative luminescence units): more active than the PEG-Prom in prostate cancer cells as compared to normal counterparts RWPE-1 and P69
[1]; src-, raf-, ras- and HPV-transformed CREF cells
  tCCN1-Prom activity in transformed CREF cells: elevated as a function of transformation of CREF cells by diverse acting oncogenes
[3]
  tCCN1-Prom expression in additional human cancers vs normal counterparts: elevated expression in additional human cancers vs. normal immortal or primary normal counterparts
